We go through 3 substances from PMC10937716.

What all share (experiment): cryo-EM structure; purified BAV virions (full and partial particles) in 1x PBS pH 7.4; icosahedral reconstruction and local reconstructions of the fivefold vertex, of RdRp and of VP9
Assay [1] addresses Banna virus (BAV) strain YN15-126-01 VP9, receptor binding protein (spike) (Banna virus strain YN15-126-01).
The target of assay [2] is Banna virus (BAV) strain YN15-126-01 VP8, outer capsid protein (Banna virus strain YN15-126-01).
Assay [3] has as its target Banna virus (BAV) strain YN15-126-01 VP4, membrane penetration protein (spike) (Banna virus strain YN15-126-01).

The stoichiometry N is a count of units in the complex or per binding partner.

Substance “Banna virus (BAV) strain YN15-126-01 VP9, receptor binding protein (spike) (natural protein)” had a stoichiometry N in assay [1] of 3. For “Banna virus (BAV) strain YN15-126-01 VP8, outer capsid protein (natural protein)”, the stoichiometry N in assay [2] is 3.

For the substance “Banna virus (BAV) strain YN15-126-01 VP4, membrane penetration protein (spike) (natural protein)”, the stoichiometry N in assay [3] worked out at 3.
